Biological target: PECAM-1 (purified, immobilised on the sensor chip) (UniProt P16284)
Assay: SPR

Sequence of recombinant proteinase 3 (rPR3) (P24158 28-248): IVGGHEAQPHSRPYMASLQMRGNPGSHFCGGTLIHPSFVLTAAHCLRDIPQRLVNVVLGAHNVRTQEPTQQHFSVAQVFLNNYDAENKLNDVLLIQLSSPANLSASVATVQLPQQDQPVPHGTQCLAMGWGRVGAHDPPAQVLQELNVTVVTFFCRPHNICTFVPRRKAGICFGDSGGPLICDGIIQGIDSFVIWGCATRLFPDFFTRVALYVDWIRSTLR
Sequence of soluble CD177 in complex with proteinase 3 (sCD177/PR3) (Q8N6Q3 22-408): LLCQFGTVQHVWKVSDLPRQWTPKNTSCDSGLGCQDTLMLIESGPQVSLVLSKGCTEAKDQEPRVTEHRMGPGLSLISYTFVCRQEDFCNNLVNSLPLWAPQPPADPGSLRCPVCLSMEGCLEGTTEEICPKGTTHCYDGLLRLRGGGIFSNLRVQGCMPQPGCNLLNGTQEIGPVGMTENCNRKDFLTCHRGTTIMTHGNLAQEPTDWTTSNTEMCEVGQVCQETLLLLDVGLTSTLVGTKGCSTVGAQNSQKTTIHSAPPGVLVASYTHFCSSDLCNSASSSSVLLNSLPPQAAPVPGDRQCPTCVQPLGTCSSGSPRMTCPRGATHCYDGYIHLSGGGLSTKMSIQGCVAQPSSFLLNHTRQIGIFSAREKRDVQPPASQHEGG
Sequence of soluble CD177 in complex with proteinase 3 (sCD177/PR3) (P24158 28-248): as the sequence (P24158 28-248) above

Substance	Kd [nM]
recombinant proteinase 3 (rPR3) (from UniProt P24158 28-248) (enzyme)	49.8
soluble CD177 in complex with proteinase 3 (sCD177/PR3) (from UniProt Q8N6Q3 22-408; P24158 28-248)	7.39
